Source: IntAct's records for PubMed 20485264

Tests used:
ipka_human PKIA [1] = target: ipka_human PKIA (UniProt P61925)
ipka_human PKIA [2] = target: ipka_human PKIA (UniProt P61925); remark: listed apart in the source
xpo1_yeast CRM1 = xpo1_yeast CRM1 (UniProt P30822)
ipka_human PKIA [3] = target: ipka_human PKIA (UniProt P61925); remark: listed apart in the source
ipka_human PKIA [4] = target: ipka_human PKIA (UniProt P61925); remark: listed apart in the source

Substance: Exportin-1 (Saccharomyces cerevisiae) (from UniProt P30822) V441D
- effect of a mutation on the interaction (ipka_human PKIA [1]): increasing interaction

Substance: Exportin-1 (Saccharomyces cerevisiae) (from UniProt P30822) V441A;L442A
- effect of a mutation on the interaction (ipka_human PKIA [2]): increasing interaction

Substance: cAMP-dependent protein kinase inhibitor alpha (Homo sapiens) (from UniProt P61925) I47A
- effect of a mutation on the interaction (xpo1_yeast CRM1): disrupting interaction

Substance: Exportin-1 (Saccharomyces cerevisiae) (from UniProt P30822) V443D
- effect of a mutation on the interaction (ipka_human PKIA [3]): increasing interaction

Substance: Exportin-1 (Saccharomyces cerevisiae) (from UniProt P30822) P754D
- effect of a mutation on the interaction (ipka_human PKIA [4]): increasing interaction
